Article PMC5867903

Target: mouse serum proteins (serum protein binding assay) (mouse)
Assay: ultrafiltration of serum

B1: 800-G-Abz4-t-BBN (peptide)
peptide: GQWAVGHLM
modifications: IRDye800 (800CW) on the N-terminus; 4-aminobenzoyl (Abz4) between the linker G and Q; C-terminal amide
  percent serum protein bound: > 90%
